{"source": "paper PMC9399999", "about": "(Nature Communications, 2022)", "molecular_target": "Omicron RBD (SARS-CoV-2 Omicron BA.1 (B.1.1.529), S371L | S373P | S375F | K417N | G446S | S477N | E484A | Q493R | G496S | Q498R | …)", "test": "SPR", "conditions": "both partners purified"}
{"binder": "S304 antibody (IgG1) (antibody, V domains shown, IgG1) VH: EVQLVESGGGLVQPGGSLRLSCAASGFTFSSYDMHWVRQTTGKGLEWVSTIGTAGDTYYPDSVKGRFTISREDAKNSLYLQMNSLRAGDTAVYYCARGDSSGYYYYFDYWGQGTLLTVSS VL: DIQMTQSPSSLSAAVGDRVTITCRASQSIGSYLNWYQQKPGKAPKLLIYAASSLQSGVPSRFSGSGSGTDFTLTISSLQPEDFAIYYCQQSYVSPTYTFGPGTKVDIK", "values": [{"measurement": "Kd", "result": 1.01, "unit": "nM"}]}
